Columns and labels:
[1] = system: N9 microglia cells; assay: Microglia viability, trypan blue; format: cell-based, murine; conditions: 48 hours of culture
Method: N9 cells were cultured in Iscove's Modified Dulbecco's MEM, IMDM containing streptomycin/1× penicillin and 2 mM L-glutamine, supplemented with FBS (fetal bovine serum) at 5%. The cells were plated at a concentration of 1.5×10^4 cells/cm2 and kept in a thermostatic incubator at 37° C., with 5% CO2, for 24 hours. The next day, the cells were exposed to different treatments for 48 hours. At the end of the treatments, cell viability was assessed by staining with trypan blue. The microglia was maintained in a basal culture medium and then activated with lipopolysaccharide (LPS), a molecule present on the membrane of the Gram-negative bacteria. Furthermore, to study the role of the product “anti-EPO (C4)” in the inhibition of neuroinflammation and then in the inhibition of the activation of microglia, the antibody according to the scheme below was administered, in association and not with LPS, to activate microglia. […]
N9 cells were cultured in Iscove's Modified Dulbecco's MEM, IMDM containing streptomycin/1× penicillin and 2 mM L-glutamine, supplemented with FBS (fetal bovine serum) at 5%. […] At the end of the treatments, cell viability and proliferation were assessed by staining with trypan blue and observed under the microscope for counting. […]

[2] = system: human healthy astrocytes; assay: MTT cell viability assay; format: cell-based; conditions: 96 hours
Excerpt: L. Human healthy Astrocytes is a commercial cell line of human healthy astrocytes

[3] = system: S1PR1; assay: S1PR1 expression by immunofluorescence; format: cell-based, human; conditions: S-ECs of pathological synovium
Method: ECs (1×10^4/well) were seeded into μ-Slide 8 Well, ibiTreat (Ibidi, Martinsried, Germany) collagen-coated. When cells reached the desired confluence, were fixed in paraformaldehyde 4% for 20 min at RT, washed twice with D-PBS and incubated with 0.1 M glycine to quench auto-fluorescence. Then, the coverslip was incubated with PBS+0.25% Triton ×100 to permeabilize cell membranes and then blocked in PBS+5% BSA for 30 min at RT. Incubation with anti-S1 PR1 primary antibody diluted in blocking buffer was performed overnight at 4° C. The following day, primary antibody was removed and fluorescent secondary antibody labelling was then added for 45 min at RT, protected from light, washed and finally, the coverlips were mounted with ProLong Gold Antifade Mountant (ThermoFisher). Immunolabeling was acquired using an inverted DM14 microscope equipped with DFC350×CCDcamera and LAS-X software (all from Leica Microsystems, Wetzlar, Germany). […] S1 PR1 levels are increased in pro-tumoral and pro-angiogenic conditions, when intracellular and extracellular levels of S1 P are presented. It is possible therefore to hypothesize the use of the anti-EPO (C4) antibody, such as in direct intra-articular treatment in the form of gel or suspension, in association or not with “coagulation factors and their derivatives” and also comprising FTY720 and negative modulators of the sphingosine-1-phosphate pathway.

[4] = system: HOC84 stem cells; conditions: naturally resistant to carboplatin, 96 h, CPT 40 μg/mL
Method: HOC84, which are naturally resistant to carboplatin (CPT), were cultured for 96 h in basal condition supplemented with 40 μg/mL of CPT. Cell viability was assessed by 3-(4,5-Dimethylthiazol-2-yl)-2,5-Diphenyl-tetrazoliumBromide (MTT) assay, as a function of redox potential (FIG. 24). […] Then, culture media were replaced with fresh media containing the specific treatments, or in BM as a control condition (CTR).
Test was performed in triplicate after 96 h of treatment, by replacing culture media with 100 μL of fresh media added with 10 μL of MTT 5 mg/ml in D-PBS. After 4 h of incubation, media were removed and cells were lysed with 100 μL of 2-propanol/formic acid (95:5, by vol) for 10 min.

[5] = system: GBM-CSC cell line; assay: MTT cell viability assay; format: cell-based, human; conditions: 96 hours, anti-EPO (C4) 6 μg/ml, TMZ 100 μM, FTY720 100 nM
Method: C. Glioblastoma cancer stem cell commercial line (Glioblastoma stem cell line, GBM-CSCs). Anti-EPO treatments were performed on GBM-CSCs, a commercial glioblastoma cancer cell line by CelProgen. As reported in the datasheet, GBM-CSCs have been isolated from human brain cancer tissue. GBM-CSCs were maintained in Celprogen's human glioblastoma cancer stem cell (GBM) complete growth medium and subcultured every 24 to 48 hours on a specific extra-cellular matrix.

[6] = target: T1, murine EPO (mEPO) (Mus musculus, UniProt P07321); assay: SPR binding kinetics; conditions: m-EPO
T1 sequence (P07321 27-192): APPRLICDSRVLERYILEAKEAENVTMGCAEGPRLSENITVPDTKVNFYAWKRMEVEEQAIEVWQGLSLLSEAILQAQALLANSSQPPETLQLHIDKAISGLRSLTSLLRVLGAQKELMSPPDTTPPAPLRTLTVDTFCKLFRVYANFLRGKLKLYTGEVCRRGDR
Method: FIG. 26A SPR technology can allow to determine the plasma and tissue concentrations of antibody, on the basis of an appropriate calibration curve. FIG. 26B Blood samples were collected from the retroorbital plexus under isoflurane anesthesia at 4, 24, 48, 72, 120, and 168 h from treatment.
SPR is a technology widely used to study in real time the interaction between two unlabeled molecules, one (the “ligand”) immobilized on a sensor chip, and the other (the “analyte”) flowing through a microfluidic system over the chip surface. Binding is measured in real time as a change in the refractive index on the surface. The most common application of SPR is to determine the association/dissociation binding constants for biomolecular interactions, but its versatility allows many other uses, including label-free immunoassays and concentration determination of biologics.
The study was carried out using an up-to-date SPR apparatus, the ProteOn XPR36 Protein Interaction Array system (Bio-Rad Laboratories). This system is mainly characterized by the presence of six flow channels which can uniformly immobilize up to six ligands on parallel strips of the same sensor surface.
In addition, SPR analysis was performed for anti-EPO (C4) to evaluate the binding kinetics parameters.

[7] = system: A549; assay: MTT cell viability assay; format: cell-based, human; conditions: 96 hours, 6 μg/ml
Excerpt: J. Lung carcinoma cell line (A549): human lung cancer cells used for drug efficacy screening, biochemical mechanisms and alveolar differentiation;

B1: anti-EPO (C4): isolated anti-Erythropoietin monoclonal antibody, VL SEQ ID NO:6, VH SEQ ID NO:14, hybridoma DSM ACC 3370 (antibody, listed as Homo sapiens, V domains shown)
VH: EVKLQESGGGLVQPGGSLKLSCAASGFTFSTYTMSWVRQTPEKRLEWVAYISNGGDRTYYPDTVKGRFTISRDDAKNTLFLQMSSLKSEDTAMYYCARHNITTVPFTMDYWGQGTSVTVSS
VL: DIVLTQSPASLAVSLGQRATISCRASESVDYYGTGLMQWYQQRPGQPPKLLIYGASNVGSGVPARFSGSGSGTDFSLNIHPVEGDDIAMYFCQQTRKVPSTFGGGTKLEIK
modifications: VH amino acid sequence; VL amino acid sequence
viability [1]: higher than 85%
effect on human healthy astrocyte viability [2]: did not affected human healthy astrocyte viability
S1PR1 expression levels [3]: decreased expression levels of S1 PR1
mortality [4]: 66%
cells initially seeded dead [5]: ~79%
kd [6]: 0.000669 s⁻¹
Kd ([6]; rounded): 1 µM
cells initially plated dead [7]: 63%

From patent US20240294624A1, “ANTI-ERYTHROPOIETIN ANTIBODY” (ANDREMACON S.R.L., priority 2021, published 2024)
